From publication PMC11211324 (2024)

Molecular target: KRAS-LgBiT (UniProt P01116 1-189)
Test: NanoBiT in 293T cells

Sequence of KRAS-LgBiT (P01116 whole entry): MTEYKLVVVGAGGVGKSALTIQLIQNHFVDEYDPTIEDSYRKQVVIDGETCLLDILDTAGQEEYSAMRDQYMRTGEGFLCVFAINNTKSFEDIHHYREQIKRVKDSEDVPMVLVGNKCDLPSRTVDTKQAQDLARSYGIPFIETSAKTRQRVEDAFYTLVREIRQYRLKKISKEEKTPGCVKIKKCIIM

Kd: 41.3 nM
B1: TKD (nanobody)-SmBiT (VHH)
VHH: DVQLQESGGGLVQAGGSLRLSCVASGRTFSTYPTGWFRQAPGKEREFVARINLSGGITNYADSVKGRFTISRDNAKNTVYLQMNSLKPEDTAVYYCGGGSTTWAGGIPTNFDYWGQGTQVTVSS
